Tests used:
human 5T4 antigen [1] = molecular target: T1, human 5T4 antigen (Homo sapiens, UniProt Q13641); test: BIACORE analysis of antibody binding to human 5T4 antigen immobilized on a CM5 chip; details: murine antibodies, Table 3
T1 sequence (Q13641 32-420): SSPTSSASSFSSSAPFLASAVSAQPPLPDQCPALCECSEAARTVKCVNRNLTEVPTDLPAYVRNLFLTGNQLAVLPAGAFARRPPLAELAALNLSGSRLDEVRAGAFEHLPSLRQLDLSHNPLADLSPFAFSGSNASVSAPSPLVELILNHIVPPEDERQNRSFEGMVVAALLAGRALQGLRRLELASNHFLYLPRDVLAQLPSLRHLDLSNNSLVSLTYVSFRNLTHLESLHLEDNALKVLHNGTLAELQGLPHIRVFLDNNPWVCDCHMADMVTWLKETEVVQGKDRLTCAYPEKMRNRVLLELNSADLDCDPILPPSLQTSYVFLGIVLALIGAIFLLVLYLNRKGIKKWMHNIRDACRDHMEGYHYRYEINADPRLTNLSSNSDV
Description: To assess the binding specificity and affinity of the A1, A2, and A3 antibodies, BIACORE® analysis was performed using human 5T4 antigen immobilized on a CM5 chip. BIACORE® technology utilizes changes in the refractive index at the surface layer upon binding of the antibody to the 5T4 antigen immobilized on the layer. Binding is detected by surface plasmon resonance (SPR) of laser light refracting from the surface. Analysis of the signal kinetics on rate and off rate allows discrimination between non-specific and specific interactions. The H8 anti-5T4 antibody was used as a control. H8 is a hybridoma-generated monoclonal mouse IgG1 antibody described in PCT International Publication No. WO 98/55607 and in Forsberg et al. (1997) J. Biol. Chem. 272(19):[…].
To assess the binding specificity and affinity of the chimeric and humanized H8, A1, A2, and A3 antibodies, BIACORE® analysis was performed using human 5T4 antigen immobilized on a CM5 chip. See Example 2.

[2] = molecular target: T2, human 5T4 ectodomain Fc fusion protein (Homo sapiens, UniProt Q13641); test: Competitive binding assay with biotinylated humanized H8 antibody; details: FIGS. 6A-6B
T2 construct: Human; 100; 1-355; made in house; host or cells: COS-1 cells (transient)
T2 sequence (Q13641 32-355): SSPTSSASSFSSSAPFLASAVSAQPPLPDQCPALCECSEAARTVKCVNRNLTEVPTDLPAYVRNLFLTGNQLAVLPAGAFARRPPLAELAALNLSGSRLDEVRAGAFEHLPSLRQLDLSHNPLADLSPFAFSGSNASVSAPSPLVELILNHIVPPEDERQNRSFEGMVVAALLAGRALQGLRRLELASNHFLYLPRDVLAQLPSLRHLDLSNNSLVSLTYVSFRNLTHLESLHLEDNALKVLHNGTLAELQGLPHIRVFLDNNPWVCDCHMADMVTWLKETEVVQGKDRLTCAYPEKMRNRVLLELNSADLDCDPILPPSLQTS
Excerpt: FIGS. 6A-6B show graphical results of competitive binding of humanized H8 and each of the indicated antibodies to human 5T4 ectodomain Fc fusion protein. HuH8, humanized H8 antibody; ChiA1, chimeric A1 antibody; ChiA1+C67F, chimeric A1 antibody bearing C67F mutation; ChiA2, chimeric A2 antibody; muA2, murine A2 antibody; ChiA3, chimeric A3 antibody; ChiA3+C91Y, chimeric A3 antibody bearing C91Y mutation, muA3, murine A3 antibody; No Ab, no antibody (control).
In addition to direct binding assays, competitive binding assays were performed using biotinylated humanized H8 antibody and each of the A1, A2, or A3 antibodies. Inhibition of binding to human 5T4 was not observed, supporting that each of A1, A2, and A3 binds to a 5T4 epitope that is distinct from that bound by the H8 antibody.

human 5T4 antigen [3] = molecular target: T1, human 5T4 antigen; test: BIACORE competition assay: second antibody after saturation with first antibody; assay type: binding
Description: Epitope mapping of the H8, A1, A2, and A3 antibodies was also performed using BIACORE® using a CM5 chip with bound human 5T4 antigen. The chip was saturated with H8, A1, A2, or A3 antibody, and a first response was measured. The chip was then saturated with a second antibody from among the H8, A1, A2, and A3 antibodies, and a second response was measured. For multiple experiments, the chip was regenerated by dissociation of the bound antibodies in 10 mM glycine, pH 1.5, followed by a buffer wash. The percentages shown are the response units measured upon binding by a second antibody directly to the CM5 chip divided by the response units measured upon binding of the second antibody to a CM5 chip saturated with a first antibody.
The epitopes bound by the H8 and A3 antibodies are sterically close to each other such that the rate of association with antigen is decreased when binding of H8 is assayed in the presence of A3, and vice versa. Similar results were obtained using the chimeric and humanized H8, A1, A2, and A3 antibodies, which were prepared as described in Example 7 herein below.

MDAMB435/5T4 cells = test: Modulation/internalization of antibodies by MDAMB435/5T4 cells (FACS); assay type: cell-based, human; details: 37° C., 4 or 24 hours, 4C
Description: FIGS. 4A-4C are line graphs that show modulation of H8, A1, A2, and A3 antibodies by MDAMB435/5T4 cells. […] MCF, mean cellular fluorescence; supt, supernatant.
To assess internalization of antibodies upon binding to 5T4 antigen, the amount of H8 and A1 antibodies detected at the cell surface versus in the supernatant was determined as a function of time. Non-enzymatically dissociated MDAMB435/5T4 cells (human breast cancer cells) were exposed to anti-5T4 antibodies for 1 hour at 4° C. Cells were washed and incubated in media at 37° C. for 4 hours or 24 hours. The amount of antibody bound to cellular membranes versus unbound antibody (i.e., presence in the supernatant) was determined using FACS.

[4] = tested on: human/mouse 173-258 5T4 chimera; test: Epitope mapping ELISA, human/mouse 5T4 chimeras; assay type: binding; design: key: +: binding; −: no binding; +/−: partial binding
Description: To identify the epitopes to which each of the A1, A2, A3, and H8 antibodies bind, ELISA assays were performed using (1) 5T4 ectodomain Fc constructs with deleted or mutated sequences, and (2) 5T4 chimera constructs transiently expressed in COS-1 cells. The ectodomain includes the amino-terminal region, two leucine-rich repeats, and the intervening hydrophilic region. Fusion proteins containing a 5T4 ectodomain and a Fc constant regions from human IgG1 were prepared using mouse 5T4 (amino acids 1-361), rat 5T4 (amino acids 1-361), cynomologous monkey 5T4 (amino acids 1-355), chimpanzee 5T4 (amino acids 1-355), and black-tailed marmoset (amino acids 1-355). The 5T4 chimera constructs are depicted in FIG. 5. The binding results are summarized in Table 5, which indicates specific binding, partial binding, or lack of binding, by each of the H8, A1, A2, and A3 antibodies.

B1: A2: murine anti-5T4 monoclonal antibody (IgG2b heavy chain); VH residues 19-135 of SEQ ID NO:6, VL residues 23-130 of SEQ ID NO:8 (antibody, listed as Mus musculus, V domains shown)
VH: MEWRIFLFILSGTAGVHSQVQLQQSRPELVKPGASVKMSCKASGYTFTDYVISWVKQRTGQGLEWIGEIYPGSNSIYYNEKFKGRATLTADKSSSTAYMQLSSLTSEDSAVYFCAMGGNYGFDYWGQGTTLTVSS
VL: MDFQVQIFSFLLISASVIMSRGQIVLTQSPAIMSASLGERVTLTCTASSSVNSNYLHWYQQKPGSSPKLWIYSTSNLASGVPARFSGSGSGTSYSLTISSMEAEDAATYYCHQYHRSPLTFGAGTKLELK
modifications: (1)..(18) leader sequence; (19)..(135) heavy chain variable region; (44)..(53) CDR1; (68)..(84) CDR2; (117)..(124) CDR3; (1)..(22) leader sequence; (23)..(130) light chain variable region; (46)..(56) CDR1; (73)..(79) CDR2; (112)..(120) CDR3
KA (human 5T4 antigen [1]): 6.5e+07 M⁻¹ | ka (human 5T4 antigen [1]): 56000 M⁻¹ s⁻¹ | kd (human 5T4 antigen [1]): 0.00087 s⁻¹ | inhibition of binding of biotinylated humanized H8 to human 5T4 [2]: not observed | Percentage Response of Second Antibody Following Saturation With First Antibody (human 5T4 antigen [3]; 1st antibody A1): 98% | Percentage Response of Second Antibody Following Saturation With First Antibody (human 5T4 antigen [3]; 1st antibody A3): 94% | levels of antibody at the cell surface (MDAMB435/5T4 cells; FIGS. 4A): decline over time | levels of antibody in the supernatant (MDAMB435/5T4 cells; FIGS. 4B): remain constant | binding to 5T4 antigen construct [4]: +

From patent publication US20070231333A1, “ANTI-5T4 ANTIBODIES AND USES THEREOF” (Wyeth, priority 2006, published 2007)
